# Results from PMC13189624, “MORC2 mediates transcriptional regulation through liquid-liquid phase separation” (eLife, 2026).
# B1: wild-type MORC2 901-1032 with Trx-tag [human] / itself (parent)
# chain: LSTNHETIDLLVQILRNCLRYFLPPSFPISKKQLSAMNSDELISFPLKEYFKQYEVGLQNLCNSYQSRADSRAKASEESLRTSERKLRETEEKLQKLRTNIVALLQKVQEDIDINTDDELDAYIEDLITKGD
# Variants of: B1
# Assay: static light-scattering (SLS) coupled to size-exclusion chromatography
# Details: with itself; Trx tag (14 kDa) kept on constructs
row,molecular mass [kDa],Variant
1,113,chain 1 F22Q
2,79.8,chain 1 L11Q
